Where a chain is given by its changes, count along the chain named. In names and notes the source's numbering stands. Several values for one entry are separate records, joined by “and”; a condition that tells them apart may be missing. Equal entries are not always repeated.
B1: Mouse GLS2 (Leu72-Val602) (enzyme, UniProt Q571F8 72-602, looked up)
chain: LGDLLFYTIAEGQERIPIHKFTTALKATGLQTSDPRLQDCMSKMQRMVQESSSGGLLDRELFQKCVSSNIVLLTQAFRKKFVIPDFEEFTGHVDRIFEDAKEPTGGKVAAYIPHLAKSNPDLWGVSLCTVDGQRHSVGHTKIPFCLQSCVKPLTYAISVSTLGTDYVHKFVGKEPSGLRYNKLSLNEEGIPHNPMVNAGAIVVSSLIKMDCNKAEKFDFVLQYLNKMAGNEFMGFSNATFQSEKETGDRNYAIGYYLKEKKCFPKGVDMMAALDLYFQLCSVEVTCESGSVMAATLANGGICPITGESVLSAEAVRNTLSLMHSCGMYDFSGQFAFHVGLPAKSAVSGAILLVVPNVMGMMCLSPPLDKLGNSQRGINFCQKLVSLFNFHNYDNLRHCARKLDPRREGGEVRNKTVVNLLFAAYSGDVSALRRFALSAMDMEQKDYDSRTALHVAAAEGHIEVVKFLIEACKVNPFVKDRWGNIPLDDAVQFNHLEVVKLLQDYHDSYLLSETQAEAAAETLSKENLESMV
notes: liver-type glutaminase GLS2, mouse, residues Leu72-Val602; also called liver-type glutaminase; wild type; source: recombinant, purified
B2: Mouse GLS2 (Leu72-Val602) Lys253Ala mutant (enzyme, UniProt Q571F8 72-602, looked up)
chain: B1 chain with K182A
notes: also called K253A; source: recombinant, purified; point mutant generated by PCR (QuickChange II XL)
B3: Human GLS2 glutaminase domain (Ile154-Gly479) (domain or fragment, UniProt Q9UI32-1 154-479, looked up)
chain: IPDFEEFTGHVDRIFEDVKELTGGKVAAYIPQLAKSNPDLWGVSLCTVDGQRHSVGHTKIPFCLQSCVKPLTYAISISTLGTDYVHKFVGKEPSGLRYNKLSLNEEGIPHNPMVNAGAIVVSSLIKMDCNKAEKFDFVLQYLNKMAGNEYMGFSNATFQSEKETGDRNYAIGYYLKEKKCFPKGVDMMAALDLYFQLCSVEVTCESGSVMAATLANGGICPITGESVLSAEAVRNTLSLMHSCGMYDFSGQFAFHVGLPAKSAVSGAILLVVPNVMGMMCLSPPLDKLGNSHRGTSFCQKLVSLFNFHNYDNLRHCARKLDPRREG
notes: liver-type glutaminase GLS2, human, glutaminase (catalytic) domain, residues Ile154-Gly479, common to the LGA and GAB isoforms; Cloned into pNIC28-Bsa4; also called human GLS2 catalytic domain construct; source: E. coli BL21(DE3)-R3-pRARE2, purified (Ni-NTA, Superdex 200 gel filtration, HiTrap Q HP)

Key:
[1] = target: the molecule itself; experiment: SEC; analytical gel filtration of serial dilutions of the protein, in the absence of phosphate; Stokes radius against protein concentration
[2] = target: the molecule itself; experiment: crystal structure; ligand-free, sitting drop at 293 K, 0.1 M Tris pH 8.5, 0.2 M NaCl, 25% PEG 3350; space group H 3 2, two monomers in the asymmetric unit, tetramer generated by crystal symmetry

Protein | stoichiometry N [1] | stoichiometry N [2]
B1 | 2 and 4 | –
B2 | 4 | –
B3 | – | 4

From PMC8130709, “Structure and activation mechanism of the human liver-type glutaminase GLS2” (Biochimie, 2021)
